According to US20140112919A1:
One block for each binder: values may come before it.

Columns and labels:
[1] = molecular target: recombinant human IL-10 (human) (UniProt P22301)
[2] = molecular target: recombinant human IL-10 (human) (UniProt P22301); experiment: KinExA, mean (n)
[3] = molecular target: recombinant cyno IL-10 (cyno) (UniProt P79338); experiment: Biacore, mean ± S.D. (n); format not described
[4] = molecular target: recombinant human IL-10 (human) (UniProt P22301); experiment: Biacore, mean ± S.D. (n); format not described
[5] = molecular target: T1, recombinant mouse IL-10 (mouse) (UniProt P18893); experiment: Biacore, mean ± S.D. (n); format not described
T1 sequence: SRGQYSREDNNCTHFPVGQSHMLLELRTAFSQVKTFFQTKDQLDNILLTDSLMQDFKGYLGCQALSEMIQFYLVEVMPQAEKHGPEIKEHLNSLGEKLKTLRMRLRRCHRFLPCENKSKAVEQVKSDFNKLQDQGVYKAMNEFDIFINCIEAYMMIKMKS

[6] = molecular target: rat anti hIL-10 mAb 12G8; experiment: competitive ECLA (IGEN): unlabeled IL-10 titrated against hIL-10-biotin for binding to rat 12G8

Chain of recombinant cyno IL-10 (cyno) (P79338 19-178 limits assumed): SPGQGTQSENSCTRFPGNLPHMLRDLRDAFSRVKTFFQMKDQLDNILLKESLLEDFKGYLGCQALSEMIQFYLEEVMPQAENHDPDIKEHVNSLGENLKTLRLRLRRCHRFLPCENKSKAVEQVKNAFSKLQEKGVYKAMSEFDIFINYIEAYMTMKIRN

Bioassay IC50(pM) [1]: 66 pM
Kd [2]: 23 pM
Kd [3]: 330 pM
Kd [4]: 277 pM
Kd [5]: 7400 pM
B1: rat anti hIL-10 mAb 12G8 (antibody, from a related filing, V domains shown)
VH: EVQLVESGGGLVRPGGSLRLSCTASGFTFSDYHMAWVRQSPDKGLEWVASITLDATYTYYRDSVRGRFTISRNNAKTTLYLQMDSLRSEDTATFYCTRHRGFSVWLDYWGQGVMVTVSS
VL: DIQMTQSPSLLSASVGDRVTLNCKTSQNIFENLAWYQQKLREPPKLLIFNASPLQAGIPSRFSGSGSGTDFTLTITSLQPEDVATYFCHQYYSGYTFGPGTKLELKR

IC50 [6]: 37900 pM
B2: recombinant mouse IL-10 (ligand)
chain: T1 sequence

Bioassay IC50(pM) [1]: 93 pM
B3: humanized anti-human IL-10 antibody SCH 708980 (12G8) (antibody, V domains shown)
VH: QVQLVESGGGVVQPGRSLRLSCAASGFTFSDYHMAWVRQAPGKGLEWVASITLDATYTYYRDSVRGRFTISRDNSKNTLYLQMNSLRAEDTAVYYCARHRGFSVWLDYWGQGTLVTVSS
VL: DIQMTQSPSSLSASVGDRVTITCKTSQNIFENLAWYQQKPGKAPKLLIYNASPLQAGVPSRFSGSGSGTDFTLTISSLQPEDFATYYCHQYYSGYTFGPGTKLELKR
